Consider one substance from patent publication US20050123549A1.

Experiment [1] addresses Muc1 mucin carrying the CA6 sialoglycotope (human) (UniProt P15941). The experiment in a line: flow cytometry on KB cells. A general note: Flow cytometry measures light scatter and fluorescence of single cells or particles in a stream.
Experiment [2] addresses Muc1 on DS6 negative & CM1 positive cell lines (KLE, OVCAR3, SKOV3), without the CA6 epitope (human) (UniProt P15941). The experiment in a line: flow cytometry on KLE cells.
Experiment [3] deals with Muc1 mucin carrying the CA6 sialoglycotope (human) (UniProt P15941). The experiment in a line: flow cytometry on HeLa cells.
Experiment [4] has the same target. The experiment is described as follows: flow cytometry on MCF7 cells.
For experiment [5] the target is unchanged. The experiment in a line: flow cytometry on BT549 cells.
The target is the same in experiment [6]. The experiment is described as follows: flow cytometry on CaOV3 cells.
The target in experiment [7] is Muc1 on DS6 negative & CM1 positive cell lines (KLE, OVCAR3, SKOV3), without the CA6 epitope (human) (UniProt P15941). The experiment in a line: flow cytometry on SKOV3 cells.
For experiment [8] the target is unchanged. The experiment in a line: flow cytometry on OVCAR3 cells.
The target of experiment [9] is Muc1 mucin carrying the CA6 sialoglycotope (human) (UniProt P15941). The experiment in a line: flow cytometry on KB cells, apparent Kd.
Experiment [10] deals with Muc1 on DS6 negative & CM1 positive cell lines (KLE, OVCAR3, SKOV3), without the CA6 epitope (human) (UniProt P15941). The experiment is described as follows: flow cytometry on KLE cells, apparent Kd.
The target in experiment [11] is Muc1 mucin carrying the CA6 sialoglycotope (human) (UniProt P15941). The experiment is described as follows: flow cytometry on HeLa cells, apparent Kd.
For experiment [12] the target is unchanged. The experiment is described as follows: flow cytometry on MCF7 cells, apparent Kd.
For experiment [13] the target is unchanged. The experiment is described as follows: flow cytometry on BT549 cells, apparent Kd.
Experiment [14] shares this target. The experiment is described as follows: flow cytometry on CaOV3 cells, apparent Kd.
Experiment [15] concerns the target Muc1 on DS6 negative & CM1 positive cell lines (KLE, OVCAR3, SKOV3), without the CA6 epitope (human) (UniProt P15941). The experiment is described as follows: flow cytometry on SKOV3 cells, apparent Kd.
For experiment [16] the target is unchanged. The experiment is described as follows: flow cytometry on OVCAR3 cells, apparent Kd.

Consider CM1 antibody (Muc1 VNTR antibody), for which the MMF (maximum mean relative fluorescence) in [1] was determined as 338; in experiment [2], 562; in experiment [3], 335; in experiment [4], 1020; in experiment [5], 188; in [6], 1030. Besides, the values for the MMF (maximum mean relative fluorescence) in experiment [7] and in experiment [8] were 49.4 and 192, respectively. For the same substance, the Kd came out at 5.34 nM in [9]; 8.16 nM in [10]; 2.91 nM in experiment [11]; 8.69 nM in [12]; 6.06 nM in experiment [13]; 7.48 nM in experiment [14]. Further, the values for the Kd in experiment [15] and in [16] were 6.25 nM and 5.95 nM, respectively.
